In paper PMC6294630:

Target: Wild-type placental protein 13/galectin-13 (Gal-13) (human) (UniProt Q9UHV8)

hemagglutination of chicken erythrocytes, minimum agglutination concentration (MAC): 25 µg/mL
B1: Wild-type placental protein 13/galectin-13 (Gal-13) (natural protein)
chain: MSSLPVPYKLPVSLSVGSCVIIKGTPIHSFINDPQLQVDFYTDMDEDSDIAFRFRVHFGNHVVMNRREFGIWMLEETTDYVPFEDGKQFELCIYVHYNEYEIKVNGIRIYGFVHRIPPSFVKMVQVSRDISLTSVCVCN
